{"source": "paper PMC4227788", "about": "“Architecture and ssDNA interaction of the Timeless-Tipin-RPA complex” (Nucleic Acids Research, 2014)", "key": {"Tim-Tipin complex": {"molecular_target": "T1, Tim-Tipin complex (mouse, UniProt Q9R1X4;Q91WA1 1-1134;1-278)", "T1 sequence 1": "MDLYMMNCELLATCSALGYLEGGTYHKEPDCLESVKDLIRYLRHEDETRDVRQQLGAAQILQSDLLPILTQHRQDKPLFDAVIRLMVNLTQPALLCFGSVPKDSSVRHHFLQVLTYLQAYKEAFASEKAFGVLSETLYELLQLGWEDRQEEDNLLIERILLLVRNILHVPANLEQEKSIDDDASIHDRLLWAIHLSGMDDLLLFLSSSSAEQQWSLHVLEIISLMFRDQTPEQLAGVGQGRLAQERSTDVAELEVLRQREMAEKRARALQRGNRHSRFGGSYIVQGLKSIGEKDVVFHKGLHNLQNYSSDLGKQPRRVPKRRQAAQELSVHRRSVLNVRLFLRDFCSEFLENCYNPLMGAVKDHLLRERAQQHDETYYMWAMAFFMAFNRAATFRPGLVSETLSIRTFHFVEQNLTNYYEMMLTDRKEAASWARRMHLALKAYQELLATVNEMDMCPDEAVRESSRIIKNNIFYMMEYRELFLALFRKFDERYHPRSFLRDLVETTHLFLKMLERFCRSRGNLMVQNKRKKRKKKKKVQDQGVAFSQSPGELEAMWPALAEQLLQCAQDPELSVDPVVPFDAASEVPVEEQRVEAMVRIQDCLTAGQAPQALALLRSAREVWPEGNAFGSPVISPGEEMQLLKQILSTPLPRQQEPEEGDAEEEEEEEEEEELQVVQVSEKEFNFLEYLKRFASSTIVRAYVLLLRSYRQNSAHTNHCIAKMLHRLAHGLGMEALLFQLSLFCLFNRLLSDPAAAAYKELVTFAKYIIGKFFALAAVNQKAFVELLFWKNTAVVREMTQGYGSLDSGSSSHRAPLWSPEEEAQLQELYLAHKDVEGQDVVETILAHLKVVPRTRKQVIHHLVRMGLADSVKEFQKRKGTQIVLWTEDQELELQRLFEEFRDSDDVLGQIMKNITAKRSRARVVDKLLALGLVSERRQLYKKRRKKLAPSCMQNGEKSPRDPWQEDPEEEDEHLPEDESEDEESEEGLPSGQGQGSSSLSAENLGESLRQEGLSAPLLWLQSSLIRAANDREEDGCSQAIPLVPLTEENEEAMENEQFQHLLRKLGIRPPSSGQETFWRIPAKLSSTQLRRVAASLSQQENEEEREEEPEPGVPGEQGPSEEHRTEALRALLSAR", "T1 sequence 2": "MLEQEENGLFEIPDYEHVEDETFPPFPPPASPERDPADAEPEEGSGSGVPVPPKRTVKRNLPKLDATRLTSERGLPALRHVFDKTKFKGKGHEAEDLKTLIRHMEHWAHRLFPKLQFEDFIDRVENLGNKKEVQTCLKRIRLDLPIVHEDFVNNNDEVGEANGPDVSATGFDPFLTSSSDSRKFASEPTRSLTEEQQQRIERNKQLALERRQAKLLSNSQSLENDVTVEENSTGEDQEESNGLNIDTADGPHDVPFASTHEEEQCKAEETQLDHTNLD", "assay": "fluorescence anisotropy; Hill n = 1.2 ± 0.2; 30 C; 20 mM Hepes pH 7.5, 125 mM NaCl, 2 mM DTT, 0.01 mM zinc acetate (Buffer A); EMSA 15 min RT + 15 min 4 C; FA 15 min 30 C, 10 nM DNA", "settings": "protein: recombinant; tags: His (Tim) and His-GST (Tipin), cleaved with 3C; copies: 1;1; label: 5'-FAM"}, "[1]": {"molecular_target": "RPA70/32/14 (RPA70ABC/32D-WH/14) (mouse, UniProt Q8VEE4;Q99KL9;Q9CQ71 190-623;43-270;1-121)", "sequence (Q8VEE4 190-623, chain 1 of 3)": "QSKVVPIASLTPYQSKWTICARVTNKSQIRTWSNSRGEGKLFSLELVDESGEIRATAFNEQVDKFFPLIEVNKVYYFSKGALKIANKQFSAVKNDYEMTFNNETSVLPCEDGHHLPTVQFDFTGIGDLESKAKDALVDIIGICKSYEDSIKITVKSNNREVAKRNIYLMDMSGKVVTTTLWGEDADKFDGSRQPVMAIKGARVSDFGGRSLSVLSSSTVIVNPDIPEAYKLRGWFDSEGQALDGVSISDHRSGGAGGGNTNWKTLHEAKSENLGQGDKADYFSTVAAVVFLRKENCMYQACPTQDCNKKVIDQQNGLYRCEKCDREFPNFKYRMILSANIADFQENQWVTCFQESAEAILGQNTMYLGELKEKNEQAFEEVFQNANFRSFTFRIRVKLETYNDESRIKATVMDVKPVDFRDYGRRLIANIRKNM", "sequence (chain, as listed by the source, chain 2 of 3)": "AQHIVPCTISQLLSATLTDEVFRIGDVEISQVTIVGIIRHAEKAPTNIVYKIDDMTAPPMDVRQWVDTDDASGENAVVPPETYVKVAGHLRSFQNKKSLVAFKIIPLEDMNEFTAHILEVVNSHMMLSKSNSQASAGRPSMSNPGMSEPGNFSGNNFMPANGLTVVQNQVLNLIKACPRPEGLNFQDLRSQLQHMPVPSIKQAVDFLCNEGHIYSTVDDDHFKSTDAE", "sequence (Q9CQ71 whole entry, chain 3 of 3)": "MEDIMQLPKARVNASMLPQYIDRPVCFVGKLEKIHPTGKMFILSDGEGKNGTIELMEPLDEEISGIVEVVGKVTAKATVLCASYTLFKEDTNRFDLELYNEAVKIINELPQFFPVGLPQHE", "assay": "EMSA; 1 RPA with excess DNA, up to 2 RPA at substoichiometric DNA; 20 mM Hepes pH 7.5, 125 mM NaCl, 2 mM DTT, 0.01 mM zinc acetate (Buffer A); EMSA 15 min RT + 15 min 4 C; FA 15 min 30 C, 10 nM DNA", "settings": "protein: recombinant; tags: His; copies: 1;1;1; label: 5'-FAM"}}, "data": [{"binder": "ACGCTGCCGAATTCTACCAGTGCCTTGCTA (ssDNA)", "note": "[30 nt FAM ssDNA]", "values": [{"measurement": "Kd", "setting": "Tim-Tipin complex", "result": "1700 ± 200", "unit": "nM"}, {"measurement": "binding result", "setting": "[1]", "result": "binds"}]}]}
